Assay [1] has as its target T1, recombinant human BCMA Fc 4-53 (human).
T1 construct: also called Human BCMA CD33-hBCMA ECD (4-53) TEV-Fc; recombinant BCMA
The experiment in a line: ELISA, neutralisation of ligand binding to plate-coated BCMA Fc 4-53; competitor APRIL; competitor APRIL. The protocol:
96 well flat bottomed plates were coated overnight with 1 μg/mL solution of recombinant human BCMA Fc 4-53 in PBS. Following a wash step using 0.05% TWEEN20, plates were blocked with 2% Bovine Serum Albumin solution in PBS for 1 hour at room temperature. […] 40 μL of 2% BSA was added to the relevant control wells. […] Equivalent volume of 2% BSA was added to the relevant control wells. Plates were allowed to incubate for 2 hours at room temperature, after which they were washed as before. […] Following a wash step, 50 µL of a 1:4000 dilution of Streptavidin-HRP (Amersham RPN4401) was added to each well and incubated for 30 minutes at room temperature. The wash process was repeated again followed by the addition of […] of Tetramethylbenzidine substrate solution (T8665, Sigma) into each well. Plates were incubated for 20-25 minutes at room temperature, wrapped in foil. The reaction was stopped with the addition of […] of 1M H₂SO₄. Optical density was determined at 450 nm using Spectromax reader.
(An ELISA detects its analyte on a solid surface through an enzyme-linked reagent.)

Assay [2] concerns the target T2, recombinant cyno BCMA, in house material (cyno, UniProt A0A2K5UD97 4-52).
T2 construct: also called Cyno in house BCMA
Put plainly: Biacore T100, antibody captured on Protein A, 37C.

For assay [3], the target named is T3, recombinant human BCMA, commercial (US Biological, B0410) (human, UniProt Q02223 5-54, limits assumed).
T3 construct: also called commercial human BCMA; Human commercial BCMA
T3 chain (looked up): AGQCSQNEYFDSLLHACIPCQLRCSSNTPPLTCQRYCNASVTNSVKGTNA
The experiment in a line: Biacore T100, antibody captured on Protein A, 37C. (In general: Surface plasmon resonance follows binding to a sensor surface in real time, without labels.)

Assay [4] concerns the target T3, recombinant human BCMA, commercial (US …). The experiment in a line: Biacore T100, antibody captured on Protein A, 37C, experiment 2. The protocol:
(§1) Protein A was immobilised on a CMS chip (GE Healthcare, Cat No: BR-1005-30) by primary amine coupling and this surface was then used to capture the antibody molecules. Recombinant human BCMA (US Biological, B0410) was used as analyte at 256 nM, 64 nM, 16 nM, 4 nM and 1 nM. Regeneration of the capture surface was carried out using 50 mM NaOH. All binding curves were double referenced with a buffer injection (i.e. 0 nM) the data was fitted to the using the 1:1 model inherent to T100 evaluation software. The run was carried out at 25° C. and 37° C. for experiment 1 and only 37° C. for experiment 2 using HBS-EP as the running buffer.

Assay [5] has as its target T2, recombinant cyno BCMA, in house material. The experiment in a line: ProteOn SPR run 2, antibody captured on Protein A, 25C.
Assay [6] concerns the target T3, recombinant human BCMA, commercial (US …). The assay is described as above.
Assay [7] deals with T4, human BCMA expressed on cells (human, UniProt Q02223 1-184).
T4 construct: whole, on cells; also called human BCMA HEK293; ARH77-hBCMA 10B5 BCMA expressing transfectant cells
T4 sequence (looked up): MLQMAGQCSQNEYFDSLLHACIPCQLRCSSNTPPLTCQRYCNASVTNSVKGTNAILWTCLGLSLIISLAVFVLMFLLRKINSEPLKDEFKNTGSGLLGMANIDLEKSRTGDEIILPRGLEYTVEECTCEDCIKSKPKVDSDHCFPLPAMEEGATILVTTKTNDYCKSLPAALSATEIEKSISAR
The experiment in a line: FACS on U266 cells, PE anti-human IgG, MFI. The method, then:
(§2) Cells were then washed with FACS buffer (PBS+0.5% BSA+0.1% sodium azide) to remove unbound antibody. Cells were incubated with a secondary PE labelled anti-human IgG antibody for 15 minutes at RT and then washed with FACS buffer to remove unbound antibody. Cells were analysed by FACS and mean fluorescence intensity (MFI) values measured to determine binding.

Assay [8] addresses T4, human BCMA expressed on cells. Put plainly: FACS on JJN-3 cells, PE anti-human IgG, MFI. The method, then: as §2
In assay [9] the target is T5, recombinant human BCMA, in house material (human, UniProt Q02223 4-53, limits assumed).
T5 construct: also called Human in house BCMA; In house human BCMA
Put plainly: ProteOn SPR run 2, antibody captured on Protein A, 25C; Run 2 (Table 9). The protocol:
The initial screen of CA8 chimeric and humanised variants was carried out on the ProteOn XPR36 (Biorad). The method was as follows; Protein A was immobilised on a GLC chip (Biorad, Cat No: 176-5011) by primary amine coupling, CA8 variants were then captured on this surface and recombinant human BCMA (in house or commercial US Biological, B0410) materials (run 2 only)) passed over at 256, 64, 16, 4, 1 nM with a 0 nM injection (i.e. buffer alone) used to double reference the binding curves, the buffer used is the HBS-EP buffer. 50 mM NaOH was used to regenerate the capture surface. The data was fitted to the 1:1 model using the analysis software inherent to the ProteOn XPR36. […] Both runs were carried out at 25° C.

Assay [10] addresses T3, recombinant human BCMA, commercial (US …). The experiment in a line: Biacore T100, antibody captured on Protein A, 25C, experiment 1. The method, then: as §1

One may read the EC50 as the concentration needed to bring the measured effect to its halfway point. What is called Kd is a measure of binding affinity in units of concentration. Broadly, the EC50 (read off the curve) is the concentration at which the effect is half-maximal. Higher therefore signals lower potency in that assay.

B1: CA8 chimera antibody (human chimeric CA8) (antibody, V domains shown)
VH: EVQLQQSGAVLARPGASVKMSCKGSGYTFTNYWMHWVKQRPGQGLEWIGATYRGHSDTYYNQKFKGKAKLTAVTSTSTAYMELSSLTNEDSAVYYCTRGAIYNGYDVLDNWGQGTLVTVSS
VL: DIQLTQTTSSLSASLGDRVTISCSASQDISNYLNWYQQKPDGTVELVIYYTSNLHSGVPSRFSGSGSGTDYSLTIGYLEPEDVATYYCQQYRKLPWTFGGGSKLEIKR
notes: also called Chimera CA8; CA8 chimeric antibody
For the molecule B1, the EC50 in [1] was 0.773 µg/mL. Further, the Kd in [2] came to 0.305 nM; in [3] it was 0.036 nM; in assay [4] it was 0.055 nM; in [5], 2.06 nM; in assay [6] it was 0.139 nM; in [9], 0.412 nM. Besides, in [10], the Kd worked out at 0.14 nM. Besides, the “EC50 (read off the curve)” value in assay [7] was roughly 0.3 µg/mL; in assay [8], roughly 0.2 µg/mL.

The values are drawn from patent US20230137032A1 (GlaxoSmithKline, published 2023).
